Reference: patent US20240010687A1 (University of Washington, published 2024)

Key:
54.7_112_Axle = biological target: T1, 54.7_112_Axle; experiment: biolayer interferometry, biotinylated axle on streptavidin tips, ring in solution
T1 construct: Axle of a C3-C3 design (C3 homotrimer); It carries no His tag in the bicistronic pull-down; For biolayer interferometry it was Avi-tagged and biotinylated; also called C3-C3 design 54.7.112
T1 chain: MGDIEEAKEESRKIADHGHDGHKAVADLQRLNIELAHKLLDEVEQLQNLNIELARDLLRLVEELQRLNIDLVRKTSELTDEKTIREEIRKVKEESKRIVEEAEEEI
Method: (§1) FIG. 13. Biolayer interferometry assays measuring in vitro assembly of ring and axle parts into a full rotary system. For each 6 designs, the equilibrium binding curves from biolayer interferometry binding assays is shown on the left and the corresponding Biolayer interferometry kinetic binding traces shown on the right. Biotinylated axles were immobilized on the tip and the binding in a solution of fre rings was measured. For both D3-C5 and D3-C3, a fresh ring solution was prepared by buffer exchange from citrate buffer to TBS with reducing agent, and immediately used for binding assays.
Biolayer interferometry experiments were performed on an OctetRED96 BLI system (ForteBio, Menlo Park, CA). Enzymatic protein biotinylation was performed on SEC purified Avi-tagged proteins prior to the assay. The BirA500 (Avidity, LLC) biotinylation kit was used to biotinylate protein from the IMAC elution according to the manufacturer protocol. Reactions were incubated at 4C overnight and purified using size exclusion chromatography on a Superdex™ 6 10/300 Increase GL (GE Healthcare) in TBS buffer (25 mM Tris pH 8.0, 25 mM NaCl). Streptavidin coated biosensors were equilibrated for 10 minutes in Octet buffer (10 mM HEPES pH 7.4, 25 mM NaCl, 3 mM EDTA, 0.05% Surfactant P20) supplemented with 1 mg/ml Bovine Serum Albumin (SigmaAldrich). […]

C3D3_AR113_Axle (D3-C3) = biological target: T2, C3D3_AR113_Axle (D3-C3); experiment: negative stain EM after pH-controlled, oxidoreductive assembly of axle and ring
T2 construct: De novo designed D3 homohexameric axle, a surface redesign of 1552_1na0C3_int2_11; For biolayer interferometry the axle was Avi-tagged and enzymatically biotinylated; also called D3 axle; designed D3 axle
T2 chain: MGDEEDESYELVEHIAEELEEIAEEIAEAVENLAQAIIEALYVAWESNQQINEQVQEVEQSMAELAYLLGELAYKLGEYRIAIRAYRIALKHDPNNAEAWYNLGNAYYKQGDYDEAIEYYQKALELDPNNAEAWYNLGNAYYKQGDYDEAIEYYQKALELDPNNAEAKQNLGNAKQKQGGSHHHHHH

119RC4_20_Axle (D8-C4) = biological target: T3, 119RC4_20_Axle (D8-C4); experiment: stoichiometric mixing of separately purified axle and ring, then SEC, SAXS and EM
T3 construct: D8 homo-16-meric axle; two C4 rings assemble around one axle; also called D8 axle; D8A_1615
T3 chain: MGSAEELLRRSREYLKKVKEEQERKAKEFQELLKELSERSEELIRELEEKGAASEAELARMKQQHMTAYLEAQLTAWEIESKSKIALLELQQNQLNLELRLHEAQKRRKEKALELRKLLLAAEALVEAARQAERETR

[1] = biological target: T4, C8D8_6_49_119RC4_20_Axle (C8-C4); experiment: SEC, SAXS, biolayer interferometry binding kinetics and negative stain EM
T4 construct: C8 homooctameric axle, the circular permutation version of the D8 axle; For biolayer interferometry it was Avi-tagged and biotinylated; also called C8 axle
T4 chain: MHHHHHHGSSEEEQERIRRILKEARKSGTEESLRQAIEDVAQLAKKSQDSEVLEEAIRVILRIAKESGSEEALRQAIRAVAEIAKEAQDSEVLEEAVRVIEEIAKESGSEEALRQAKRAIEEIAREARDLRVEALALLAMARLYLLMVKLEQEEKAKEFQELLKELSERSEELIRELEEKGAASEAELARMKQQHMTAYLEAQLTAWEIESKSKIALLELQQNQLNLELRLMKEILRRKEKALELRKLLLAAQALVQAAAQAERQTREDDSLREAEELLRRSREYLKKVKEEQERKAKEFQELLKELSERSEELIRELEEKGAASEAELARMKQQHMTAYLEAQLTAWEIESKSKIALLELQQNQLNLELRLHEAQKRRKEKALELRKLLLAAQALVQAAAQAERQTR
Method: as §1
(§2) Protein samples were purified by SEC in 25 mM Tris pH 8.0, 25 mM NaCl and 1% glycerol; elution fractions corresponding to the protein were further concentrated using 3K protein concentrators (Millipore Sigma) and the flow-through was used as blank for buffer subtraction. SAXS Scattering measurements were performed at the SIBYLS 12.3.1 beamline at the Advanced Light Source. […] Collected data were processed using the SAXS FrameSlice™ online server and analysed using the ScÅtter software package(23). […]

C5C3_3250_Axle (C5-C3) = biological target: T5, C5C3_3250_Axle (C5-C3); experiment: as above
T5 construct: C5 homopentameric axle; For biolayer interferometry it was Avi-tagged and biotinylated; also called C5 axle
T5 chain: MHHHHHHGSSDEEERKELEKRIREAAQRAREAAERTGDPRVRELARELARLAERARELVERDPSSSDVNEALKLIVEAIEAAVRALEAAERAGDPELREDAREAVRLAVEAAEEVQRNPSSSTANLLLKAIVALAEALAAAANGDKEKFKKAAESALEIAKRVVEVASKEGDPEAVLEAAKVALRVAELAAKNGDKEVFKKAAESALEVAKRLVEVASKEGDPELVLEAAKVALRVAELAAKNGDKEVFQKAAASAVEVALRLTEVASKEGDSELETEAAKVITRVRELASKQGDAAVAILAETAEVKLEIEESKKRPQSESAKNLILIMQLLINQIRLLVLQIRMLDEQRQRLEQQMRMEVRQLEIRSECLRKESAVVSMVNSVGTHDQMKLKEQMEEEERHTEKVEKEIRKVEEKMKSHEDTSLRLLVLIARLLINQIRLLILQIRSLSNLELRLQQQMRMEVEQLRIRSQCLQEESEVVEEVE
Method: as §1, §2

B1: 54.7_112_Ring (designed binder)
chain: MGVEELLLLARAAHHSGTTVEEAYKLALKLGISVKELLLLARAAHNSGTTVEEAYKLALKLGISVEELLLLAKAAHYSGTTVEEAYKLALKLGISVRELLLLAKAAHFSGTTVEEAYKLALKLGISVEELLLLARAAHHSGTTVEEAYKLALKLGISVKELLLLARAAHNSGTTVEEAYKLALKLGISVEELLLLAKAAHYSGTTVEEAYKLALKLGISVRELLLLAKAAHFSGTTVEEAYKLALKLGISVEELLLLARAAHHSGTTVEEAYKLALKLGISVKELLLLARAAHNSGTTVEEAYKLALKLGISVEELLLLAKAAHYSGTTVEEAYKLALKLGISVRELLLLAKAAHFSGTTVEEAYKLALKLGISGSHHHHHH
notes: also called C3-C3 design 54.7.112
binding result (54.7_112_Axle): binds

B2: C3D3_AR113_Ring (D3-C3) (designed binder)
chain: MGQRSGHARQLKRHLHRLRRHLERLDKHAKHLRQILSERPQDERVKDSIDLLEESVRIVKISIKIFEASVRALLWAINKEAEELAKSPDPHDLHRAVRLARAVVQADPGSNLSKKALEIILRAAAELAKLPDPNALAAAARAASQVQREQPGSNLAKAAQEIMRQASRAAEEAARRAKETLEKAEKRGDPKTALQAVRTVVKVAAALNQIATMAGSEEAQERAARVAAEAAELALRVFELAEKQGDPHVARRARKLIQTVLQILLRILTQILETATKIIEEANKLLRKHRRSSRKDPKLVETHVELVKRHERLVRQHLKIALMHALAVLELAFPDAEAAKLASKAAKEAEELCKQSTDERLCDLLAELAALLIELAARYPDSEAAKLALKAALEAIELCKQSTDEELCEELVKLAQKLIELAKRYPDSEEAKRALKEAKELIEQCKESTDEDECRELVKRAEELIREAKEGSHHHHHH
notes: De novo designed C3 homotrimeric ring with disulfides and histidine networks at the subunit interfaces; also called C3 ring; ring of the D3-C3 rotor
binding result (C3D3_AR113_Axle (D3-C3)): binds

B3: 119RC4_20_Ring (D8-C4) (designed binder)
chain: MGCDAIQAAAALGEAGISSNEILELLAAAAELGLDPDAIQAAAQLGEAGISSEEILELLRAAHELGLDPDAIAAAADLGQAGISSEEILELLRAAHELGLDPDAIQAAAALGEAGISSEEILELLRAAHELGLDPDAIQAAAQLGEAGISSEEILELLRAAHELGLDPDCIAAAADLGQAGISSSEITALLLAAAAIELAKRADDKDVREIVRDALELASRSTNDEVIRLALEAAVLAARSTDSDVLEIVKDALELAKQSTNEEVIKLALKAAVLAAKSTDEEVLEEVKEALRRAKESTDEEEIKEELRKAVEEAEGSHHHHHH
notes: C4 ring of four subunits, each fused to DHR20; two rings sit on each D8 axle; also called C4 ring
binding result (119RC4_20_Axle (D8-C4)): binds

B4: C8D8_6_49_119RC4_20_Ring (C8-C4) (designed binder)
chain: MGCDAIQAAAALGEAGISSNEILELLAAAAELGLDPDAIQAAAQLGEAGISSEEILELLRAAHELGLDPDAIAAAADLGQAGISSEEILELLRAAHELGLDPDAIQAAAALGEAGISSEEILELLRAAHELGLDPDAIQAAAQLGEAGISSEEILELLRAAHELGLDPDCIAAAADLGQAGISSSEITALLLAAAAIELAKRADDKDVREIVRDALELASRSTNDEVIRLALEAAVLAARSTDSDVLEIVKDALELAKQSTNEEVIKLALKAAVLAAKSTDEEVLEEVKEALRRAKESTDEEEIKEELRKAVEEAEGSHHHHHH
notes: C4 ring of four subunits; also called C4 ring
binding result [1]: binds

B5: C5C3_3250_Ring (C5-C3) (designed binder)
chain: MGNRSLHANKLKTHLENLREHLKRLDEHAKQLRDILSEHPHDERVKDSIDLLEESVRIVKISIKIFEASVRALLWAINKEAEELAKSPDPADLERAVRLAAAVVRADPGSNLSKKALEIILRAAAELAKLPDPKALAAAAEAASRVQREQPGSNLAKAAQEIMRQASRAAEEAARRAKETLEKAEKDGDPRTALQAVMTVVEVAKALNIIATMAGSEEAQERAARVAAEAAELALRVFELAEKQGDPEVAHNARKLIEIVLHILLQILTQILETATKIIREANELLEKHRRSHHHDPKLVETHVELVKRHERLVRQHLKIALMHALAVLELAFPDAEAAKLASKAAKEAEELCKQSTDERLCDLLAELAALLIELAARYPDSEAAKLALKAALEAIELCKQSTDEELCEELVKLAQKLIELAKRYPDSEEAKRALKEAKELIEQCKESTDEDECRELVKRAEELIREAKEGSHHHHHH
notes: C3 homotrimeric ring; also called C3 ring
binding result (C5C3_3250_Axle (C5-C3)): binds
